T1: SF3B1 ULM5 peptide (residues 333–351), wildtype (human, UniProt O75533-1 333-351)
T1 peptide: KRKSRWDETPASQMGGSTP


Molecular target: T1, SF3B1 ULM5 peptide (residues 333–351), …
Assay: ITC

fold reduction in binding affinity against wildtype U2AF2 UHM | Binder
~20 fold | U2AF2 UHM E394K (domain or fragment) TEVLCLMNMVLPEELLDDEKYEEIVEDVRDECSKYGLVKSIEIPRPVDGVEVPGCGKIFVEFTSVFDCQKAMQGLTGRKFANRVVVTKYCDPDSYHRRDFW
~100 fold | U2AF2 UHM E397K (domain or fragment) TEVLCLMNMVLPEELLDDEEYEKIVEDVRDECSKYGLVKSIEIPRPVDGVEVPGCGKIFVEFTSVFDCQKAMQGLTGRKFANRVVVTKYCDPDSYHRRDFW
4 fold | U2AF2 UHM K453A (domain or fragment) TEVLCLMNMVLPEELLDDEEYEEIVEDVRDECSKYGLVKSIEIPRPVDGVEVPGCGKIFVEFTSVFDCQKAMQGLTGRAFANRVVVTKYCDPDSYHRRDFW

Reference: publication PMC9364107 (The Journal of Biological Chemistry, 2022)
